Test results taken from the Human Domainome abundance scans (Beltran et al. 2025).

B1: Probable E3 ubiquitin-protein ligase MID2, residues 191 to 235; numbered along this chain, Q9UJV3 (parent)
chain: RGITCLDHENEKVNMYCVSDDQLICALCKLVGRHRDHQVASLNDR

Variants of: B1
Experiment: abundance fitness (aPCA) (normalised: wild type 0, dead -1); higher = more abundant; growth selection in yeast, the domain comes from the species named
Details: Homo sapiens

Abundance fitness of substitutions, site by site:
C5: E -0.307; H -0.555; S -0.448; M -0.462; L -0.985; G -0.461; P -0.717; F -0.951; N -0.487; K -0.379; W -0.706; Q -0.585; D -0.39; V -0.589
R1: D -0.079; E 0.019; A -0.158; M -0.044; T -0.118; G -0.04; W -0.502; F 0.127; Q 0.069; K -0.211; H -0.081; V -0.195; S -0.187; N -0.017; Y -0.807; I -0.17; L -0.194
E9: S -0.033; T 0.151; N 0.056; Y -0.051; I -0.128; A 0.098; Q 0.021; D 0.017; F 0.1; W -0.252; C 0.028; R -0.024; V -0.299; L 0.032; P 0.173; K 0.073; M 0.022
T4: I 0.032; G -0.217; Q -0.257; L -0.376; N -0.01; D -0.16; C -0.18; S -0.105; A -0.238; F 0.001; V -0.235; Y 0.133; H -0.071; W -0.219; E -0.209; R -0.205
H8: F -0.808; Y -0.831; C -0.408; G -0.582; K -0.533; L -0.703; W -0.97; I -0.976; V -0.809; E -0.47; R -0.655; D -0.335; T -0.555; M -0.588
D7: T -0.223; W -0.294; V -0.17; C -0.192; L -0.162; I -0.015; A -0.128; G -0.364; M -0.239; R -0.238; Y -0.112; S -0.173; P -0.55; F -0.082; Q -0.147; N -0.107; H -0.015
N14: E 0.104; R -0.087; K 0.015; V -0.055; H 0.117; S 0.06; A 0; M -0.487; C -0.204; W -0.482; G -0.021; D -0.132; Q 0.119; L -0.124; P -0.434; T 0.049
N10: I -0.176; C -0.175; G -0.198; W -0.394; S -0.156; E -0.55; K -0.226; P -0.414; R -0.138; H -0.036; D -0.072; L -0.102; M -0.173; A -0.348; F -0.577; Q -0.313; V -0.416; T -0.26
I3: V -0.188; R -0.079; G 0.043; S -0.081; C -0.101; T 0.08; M 0.111; H -0.195; Q -0.181; W -0.229; L -0.167; E 0.036; D 0.123; N 0.162; Y 0.072
V13: Q -0.047; G -0.143; E -0.215; I 0.1; A -0.104; R -0.077; T -0.179; W -0.619; S -0.092
L6: T 0.14; I 0.16; G 0.039; D 0.124; Q 0.176; F -0.028; W -0.253; R 0.103; M 0.072; A 0.145; S 0.118; V 0.021; E 0.151; K 0.213
